Columns and labels:
[1] = target: full-length Le Blanc δ (Le Blanc virus); test: intact-protein LC-MS (reverse phase C3 column, Orbitrap); purified δ diluted to 200 ng/μl in 2% ACN, 0.1% FA; ZORBAX C3-300SB column, gradient 5% to 95% B; Orbitrap Fusion Lumos, positive mode; observed mass compared with the theoretical pentamer mass
[2] = target: Orsay δ(1–101) (Orsay virus); test: crystal structure; Orsay δ(1–101) crystallised by hanging drop, 0.1 M ammonium sulfate, 0.1 M sodium acetate pH 4.6, 25% PEG 4000, 20°C; space group P212121, five chains in the asymmetric unit; 1.8 Å
[3] = target: Orsay virus capsid protein (CP) (Orsay virus); test: co-sedimentation; infectious Orsay virions from culture supernatant of infected rde-1 worms, Triton X-100 treated, pelleted, banded on a 25% to 47.5% iodixanol step gradient (~1.3 g/ml); SDS-PAGE and Western blot with anti-CP antiserum, band intensities measured with Fiji
[4] = target: full-length Santeuil δ (Santeuil virus); test: intact-protein LC-MS (reverse phase C3 column, Orbitrap); purified δ diluted to 200 ng/μl in 2% ACN, 0.1% FA; ZORBAX C3-300SB column, gradient 5% to 95% B; Orbitrap Fusion Lumos, positive mode; observed mass compared with the theoretical pentamer mass

## full-length Le Blanc δ (natural protein)
[1]
  stoichiometry N: 5

## Orsay δ(1–101) (domain or fragment)
[2]
  stoichiometry N: 5

## Orsay CP-δ fusion protein (natural protein)
[3]
  pentameric CP-δ fibers per viral particle (fibers per viral particle): 1.1

## full-length Santeuil δ (natural protein)
[4]
  stoichiometry N: 5

— paper PMC7565637
